One assay deals with circularly permutated RBD of PKN1 (PKN1-WT) in the RhoA/B/C FRET sensors. The experiment in a line: FRET or BRET; intramolecular single-chain sensor (PKN1 RBD, mVenus, Cerulean3, RhoGTPase); average basal YFP/CFP ratio in resting live primary human EC (HUVEC), 18 hours after microporation.
“RhoC-G14V in the RhoC FRET sensor (from UniProt P08134 1-193) (natural protein)”: the basal YFP/CFP ratio came out at 6.2.

For “RhoA-Q63L in the RhoA FRET sensor (from UniProt P61586 1-193) (natural protein)”, the basal YFP/CFP ratio came out at 8.1.

“RhoC-Q63L in the RhoC FRET sensor (from UniProt P08134 1-193) (natural protein)”: the basal YFP/CFP ratio stood at 6.8.

Turning to “RhoB-G14V in the RhoB FRET sensor (from UniProt P62745 1-196) (natural protein)”, the basal YFP/CFP ratio came to 6.5.

For the next assay the target is unchanged. Nature of the assay: FRET or BRET; intramolecular single-chain sensor (PKN1 RBD, mVenus, Cerulean3, RhoGTPase); normalized mean YFP/CFP ratio change of whole live HUVEC after Thrombin (1 U/ml) at t = 110 sec.
On to “RhoC-WT in the RhoC FRET sensor (from UniProt P08134 1-193) (natural protein)”, for which the mean maximal FRET ratio change after Thrombin worked out at 42%.

As to “RhoA-WT in the RhoA FRET sensor (from UniProt P61586 1-193) (natural protein)”, the mean maximal FRET ratio change after Thrombin was 32%.

In the case of “RhoB-WT in the RhoB FRET sensor (from UniProt P62745 1-196) (natural protein)”, the mean maximal FRET ratio change after Thrombin stood at 122%.

The values are drawn from PMC4857094.
